For data set [1], the system named is COC(=O)c1ccccc1-c1c2ccc(=N)cc-2oc2cc(N)ccc12. Description: uptake kinetics in HeLa cells, flow cytometry. Format: cell-based, Homo sapiens. The settings on record: ATP. For orientation: A flow cytometer gives signals particle by particle.
For data set [2] the test system is unchanged. Briefly: efflux kinetics in HeLa cells, flow cytometry. The settings on record: ATP. The data set is classed as cell-based, Homo sapiens.

Consider 2 substances from article PMC7703596.

Take “P-glycoprotein (P-gp) 14A mutant (Homo sapiens; F336A/F343A/L332A/L975A/M986A/S979A/V331A/V334A/V338A/V345A/V974A/V977A/V981A/V982A)”: the Km (as a rule, the concentration of substrate that gives half-maximal velocity) in data set [1] was 1.69 ± 0.12 µM.
As to P-glycoprotein (P-gp) (Homo sapiens), the Km in data set [2] is on record as 2.98 ± 0.51 µM.
